Data set [1] deals with T1, ATF6 with N-terminal c-Myc-tag.
T1 chain: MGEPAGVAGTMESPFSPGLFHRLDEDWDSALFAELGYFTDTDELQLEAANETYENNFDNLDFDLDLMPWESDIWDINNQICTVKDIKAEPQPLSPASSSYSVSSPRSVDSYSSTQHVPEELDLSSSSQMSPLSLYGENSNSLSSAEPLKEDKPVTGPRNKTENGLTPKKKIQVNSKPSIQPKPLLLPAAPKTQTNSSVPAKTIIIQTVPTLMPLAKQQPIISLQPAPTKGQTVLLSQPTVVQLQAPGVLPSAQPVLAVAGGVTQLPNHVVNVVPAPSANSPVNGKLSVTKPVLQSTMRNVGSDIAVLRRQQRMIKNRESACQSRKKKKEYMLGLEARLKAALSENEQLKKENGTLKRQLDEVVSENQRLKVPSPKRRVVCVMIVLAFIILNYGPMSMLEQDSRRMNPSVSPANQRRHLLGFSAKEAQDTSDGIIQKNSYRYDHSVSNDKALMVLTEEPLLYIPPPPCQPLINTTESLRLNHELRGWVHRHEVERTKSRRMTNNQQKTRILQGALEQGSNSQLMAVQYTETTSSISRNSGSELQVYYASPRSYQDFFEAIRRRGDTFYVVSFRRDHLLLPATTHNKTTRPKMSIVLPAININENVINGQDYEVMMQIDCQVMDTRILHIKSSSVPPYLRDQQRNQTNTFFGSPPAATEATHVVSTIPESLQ

The target in data set [2] is T2, biotinylated SHC3 (p64), C-terminal tagged (pcDNA3.1/V5-His).
T2 chain: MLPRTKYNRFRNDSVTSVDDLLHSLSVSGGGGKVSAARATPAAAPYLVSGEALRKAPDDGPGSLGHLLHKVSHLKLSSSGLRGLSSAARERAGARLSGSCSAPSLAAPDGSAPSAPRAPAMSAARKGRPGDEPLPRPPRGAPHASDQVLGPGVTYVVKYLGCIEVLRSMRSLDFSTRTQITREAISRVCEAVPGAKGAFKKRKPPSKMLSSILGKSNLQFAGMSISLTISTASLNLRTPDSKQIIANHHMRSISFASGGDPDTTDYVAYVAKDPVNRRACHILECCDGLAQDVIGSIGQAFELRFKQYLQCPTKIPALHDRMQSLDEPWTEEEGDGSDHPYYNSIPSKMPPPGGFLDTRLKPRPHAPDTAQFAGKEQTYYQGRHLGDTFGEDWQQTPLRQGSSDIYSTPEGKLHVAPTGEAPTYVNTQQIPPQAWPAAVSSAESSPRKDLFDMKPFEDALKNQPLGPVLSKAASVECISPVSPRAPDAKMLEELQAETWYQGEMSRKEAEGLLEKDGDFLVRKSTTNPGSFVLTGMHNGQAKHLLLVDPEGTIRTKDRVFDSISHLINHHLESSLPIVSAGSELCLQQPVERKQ

For data set [3], the target named is T3, SHC3 (p52) with C-terminal c-Myc-tag.
T3 chain: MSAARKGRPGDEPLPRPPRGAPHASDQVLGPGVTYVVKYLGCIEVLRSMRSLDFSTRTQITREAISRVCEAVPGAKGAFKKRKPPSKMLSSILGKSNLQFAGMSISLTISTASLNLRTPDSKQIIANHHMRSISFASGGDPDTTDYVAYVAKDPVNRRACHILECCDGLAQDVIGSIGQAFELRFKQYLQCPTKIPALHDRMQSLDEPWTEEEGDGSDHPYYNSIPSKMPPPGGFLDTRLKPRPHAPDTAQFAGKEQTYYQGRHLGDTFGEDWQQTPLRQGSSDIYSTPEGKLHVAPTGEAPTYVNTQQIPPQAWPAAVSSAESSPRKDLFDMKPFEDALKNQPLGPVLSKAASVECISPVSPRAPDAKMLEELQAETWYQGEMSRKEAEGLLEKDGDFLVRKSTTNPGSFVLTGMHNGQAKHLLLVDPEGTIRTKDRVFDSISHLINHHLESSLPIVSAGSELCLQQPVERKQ

The target of data set [4] is T4, SHC3 (p64) with C-terminal c-Myc-tag.
T4 chain: T2 chain

In data set [5] the target is T5, biotinylated SHC3 (p52), C-terminal tagged (pcDNA3.1/V5-His).
T5 chain: T3 chain

Data set [6] addresses T6, CREBL1 with N-terminal c-Myc-tag.
T6 chain: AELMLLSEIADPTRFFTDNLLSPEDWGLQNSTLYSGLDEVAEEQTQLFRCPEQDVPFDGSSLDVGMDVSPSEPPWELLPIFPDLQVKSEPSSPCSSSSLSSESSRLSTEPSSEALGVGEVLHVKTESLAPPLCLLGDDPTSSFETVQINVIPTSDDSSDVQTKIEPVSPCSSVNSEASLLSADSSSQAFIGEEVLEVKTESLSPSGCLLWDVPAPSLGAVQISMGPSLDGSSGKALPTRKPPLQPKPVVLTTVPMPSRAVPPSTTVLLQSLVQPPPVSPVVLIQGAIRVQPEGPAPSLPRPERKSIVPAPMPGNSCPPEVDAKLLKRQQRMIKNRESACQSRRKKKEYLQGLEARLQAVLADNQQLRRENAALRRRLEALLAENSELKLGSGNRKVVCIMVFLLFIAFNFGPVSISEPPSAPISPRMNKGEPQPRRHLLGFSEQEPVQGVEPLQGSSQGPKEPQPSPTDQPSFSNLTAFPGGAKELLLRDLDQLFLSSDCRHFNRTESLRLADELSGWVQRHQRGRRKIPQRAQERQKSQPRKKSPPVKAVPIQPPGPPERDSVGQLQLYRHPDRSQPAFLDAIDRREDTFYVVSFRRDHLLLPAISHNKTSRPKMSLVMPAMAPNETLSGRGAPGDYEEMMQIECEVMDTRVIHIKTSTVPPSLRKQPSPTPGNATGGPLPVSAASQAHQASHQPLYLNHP

Data set [7] has as its target T7, biotinylated CREBL1, N-terminal tagged (pcDNA3.1/His).
T7 chain: T6 chain

Changes are numbered by the printed parent chain. In names and notes the source's numbering stands.

B1: mature HtrA2 with C-terminal histidine (His)-tag (protein)
chain: MAVPSPPPASPRSQYNFIADVVEKTAPAVVYIEILDRHPFLGREVPISNGSGFVVAADGLIVTNAHVVADRRRVRVRLLSGDTYEAVVTAVDPVADIATLRIQTKEPLPTLPLGRSADVRQGEFVVAMGSPFALQNTITSGIVSSAQRPARDLGLPQTNVEYIQTDAAIDFGNSGGPLVNLDGEVIGVNTMKVTAGISFAIPSDRLREFLHRGEKKNSSSGISGSQRRYIGVMMLTLSPSILAELQLREPSFPDVQHGVLIHKVILGSPAHRAGLRPGDVILAIGEQMVQNAEDVYEAVRTQSQLAVQIRRGRETLTLYVTPEVTE
For the protein B1, the “in vitro protease assay: band of ATF6 on anti-Myc Western blot” value in data set [1] was “the band of ATF6 was significantly reduced after the reaction of active HtrA2 with ATF6 for four hours (4 h) or overnight (O/N)”. Moreover, the “in vitro protease assay: degradation pattern of biotinylated SHC3 (p64) (streptavidin HRP and anti-V5 blots)” value in data set [2] was “remarkable reduction of the band of biotinylated SHC3 (p64) was observed, and further, the bands that were supposed to be a degradation products of SHC3 (p64) were detected around 70 kDa, 40 kDa, and 30 kDa”. Further, the “in vitro protease assay: degradation of SHC3 (p52), anti-Myc Western blot” value in data set [3] is reported as “Further it was observed that SHC3 (p52) was also degraded by mature HtrA2”. The “in vitro protease assay: band of SHC3 (p64) on anti-Myc Western blot” value in data set [4] was “the band of SHC3 (p64) was significantly reduced after the reaction of active HtrA2 with SHC3 (p64) for four hours (4 h) or overnight (O/N)”. Moreover, the “in vitro protease assay: degradation pattern of biotinylated SHC3 (p52) (streptavidin HRP and anti-V5 blots)” value in data set [5] is given as “remarkable reduction of the band of biotinylated SHC3 (p52) was observed, but the band that was supposed to be a degradation product of SHC3 (p52) was not detected”. Also, the “in vitro protease assay: band of CREBL1 on anti-Myc Western blot” value in data set [6] is reported as “the band of CREBL1 was significantly reduced after the reaction of active HtrA2 with CREBL1 for overnight (O/N)”. For the same protein, the “in vitro protease assay: degradation pattern of biotinylated CREBL1 (streptavidin HRP and anti-Xpress blots)” value in data set [7] was “remarkable reduction of the band of biotinylated CREBL1 was observed, and further, the band that was supposed to be a degradation product of CREBL1 was detected around 50 kDa”.

B2: mature HtrA2 (S306A) with C-terminal histidine (His)-tag (protein)
chain: B1 chain with S174A
In the case of B2, the “in vitro protease assay: degradation of ATF6, anti-Myc Western blot” value in data set [1] is “the degradation of CREBL1, ATF6, and SHC3 (p64) by inactive HtrA2 (mature HtrA2 (S306A)) was not observed”. Further, the “in vitro protease assay: degradation of biotinylated SHC3 (p64) (streptavidin HRP blot)” value in data set [2] is “the degradation of SHC3 (p64) by inactive HtrA2 (mature HtrA2 (S306A)) was not observed, and the bands around 70 kDa, 40 kDa and 30 kDa as above were not detected”. In addition, the “in vitro protease assay: degradation of SHC3 (p52), anti-Myc Western blot” value in data set [3] was “the degradation of SHC3 (p52) by inactive HtrA2 (mature HtrA2 (S306A)) was not observed as well”. For the same protein, in data set [4], the “in vitro protease assay: degradation of SHC3 (p64), anti-Myc Western blot” value is “the degradation of CREBL1, ATF6, and SHC3 (p64) by inactive HtrA2 (mature HtrA2 (S306A)) was not observed”. In addition, in data set [5], the “in vitro protease assay: degradation of biotinylated SHC3 (p52) (streptavidin HRP blot)” value was “the degradation of SHC3 (p52) by inactive HtrA2 (mature HtrA2 (S306A)) was not observed”. Moreover, in data set [6], the “in vitro protease assay: degradation of CREBL1, anti-Myc Western blot” value is “the degradation of CREBL1, ATF6, and SHC3 (p64) by inactive HtrA2 (mature HtrA2 (S306A)) was not observed”. The “in vitro protease assay: degradation of biotinylated CREBL1 (streptavidin HRP blot)” value in data set [7] is “the degradation of CREBL1 by inactive HtrA2 (mature HtrA2 (S306A)) was not observed, and the band around 50 kDa as above was not detected”.

The values above are taken from US20060264363.
